Values quoted from earlier work as cited in publication doi:10.1101/2025.04.18.649563.

Molecular target: F-actin (Oryctolagus cuniculus) (UniProt P68135)
Settings: cited from earlier work

## LifeAct (from UniProt Q08641)
  Kd: 2.2 µM
